In paper doi:10.1101/2023.06.08.544223:

Target: SPARDA complex (heterodimer of NbaAgo and DREN-APAZ), wild type (Novosphingopyxis baekryungensis)
Assay: SEC

stoichiometry N: 2
Substance: SPARDA complex (heterodimer of NbaAgo and DREN-APAZ), wild type
